In patent publication US20180037651A1 (published 2018):

T1: human GPRC5D (UniProt Q9NZD1 1-345)
T1 chain: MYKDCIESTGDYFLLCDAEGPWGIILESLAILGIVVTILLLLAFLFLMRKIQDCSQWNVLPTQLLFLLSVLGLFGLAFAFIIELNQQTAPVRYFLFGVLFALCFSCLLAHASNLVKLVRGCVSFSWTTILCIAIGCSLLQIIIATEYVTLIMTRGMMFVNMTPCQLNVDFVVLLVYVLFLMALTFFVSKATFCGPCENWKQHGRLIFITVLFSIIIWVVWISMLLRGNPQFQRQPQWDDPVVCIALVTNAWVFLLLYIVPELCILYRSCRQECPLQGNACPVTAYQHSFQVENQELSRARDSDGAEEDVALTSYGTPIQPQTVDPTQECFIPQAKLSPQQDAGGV


Biological target: T1, human GPRC5D
Assay: FACS cell binding; MM.1R cells

EC50 [pM] | Binder
100 | GC5B599 (antibody, V domains shown) VH: EVQLVQSGAEVKKPGESLKISCKGSGYSFTSYFIGWVRQMPGKGLEWMGIIYPGKSDTRYSPSFQGQVTISADKSISTAYLQWSSLKASDTAMYYCARVYSFGGRHKALFDYWGQGTLVTVSS VL: EIVLTQSPATLSLSPGERATLSCRASQSVSSYLAWYQQKPGQAPRLLIYDASNRATGIPARFSGSGSGTDFTLTISSLEPEDFAVYYCQQRSNWPLTFGQGTKVEIK
1670 | GC5B603 (antibody, V domains shown) VH: not shown VL: EIVLTQSPATLSLSPGERATLSCRASQSVRKSLAWYQQKPGQAPRLLIYTASNRATGIPARFSGSGSGTDFTLTISSLEPEDFAVYYCQQYFRAPITFGQGTKVEIKK
